This series concerns the target type I collagen (Rattus norvegicus) (UniProt P02454+P02466). Conditions: maximum binding at 12-18% DNA mass fraction; binding decreases at higher DNA fraction, no fibers at ~45% DNA; collagen species not stated in this example.

type I collagen (Rattus norvegicus), sequence (P02454 152-1207, chain 1 of 2): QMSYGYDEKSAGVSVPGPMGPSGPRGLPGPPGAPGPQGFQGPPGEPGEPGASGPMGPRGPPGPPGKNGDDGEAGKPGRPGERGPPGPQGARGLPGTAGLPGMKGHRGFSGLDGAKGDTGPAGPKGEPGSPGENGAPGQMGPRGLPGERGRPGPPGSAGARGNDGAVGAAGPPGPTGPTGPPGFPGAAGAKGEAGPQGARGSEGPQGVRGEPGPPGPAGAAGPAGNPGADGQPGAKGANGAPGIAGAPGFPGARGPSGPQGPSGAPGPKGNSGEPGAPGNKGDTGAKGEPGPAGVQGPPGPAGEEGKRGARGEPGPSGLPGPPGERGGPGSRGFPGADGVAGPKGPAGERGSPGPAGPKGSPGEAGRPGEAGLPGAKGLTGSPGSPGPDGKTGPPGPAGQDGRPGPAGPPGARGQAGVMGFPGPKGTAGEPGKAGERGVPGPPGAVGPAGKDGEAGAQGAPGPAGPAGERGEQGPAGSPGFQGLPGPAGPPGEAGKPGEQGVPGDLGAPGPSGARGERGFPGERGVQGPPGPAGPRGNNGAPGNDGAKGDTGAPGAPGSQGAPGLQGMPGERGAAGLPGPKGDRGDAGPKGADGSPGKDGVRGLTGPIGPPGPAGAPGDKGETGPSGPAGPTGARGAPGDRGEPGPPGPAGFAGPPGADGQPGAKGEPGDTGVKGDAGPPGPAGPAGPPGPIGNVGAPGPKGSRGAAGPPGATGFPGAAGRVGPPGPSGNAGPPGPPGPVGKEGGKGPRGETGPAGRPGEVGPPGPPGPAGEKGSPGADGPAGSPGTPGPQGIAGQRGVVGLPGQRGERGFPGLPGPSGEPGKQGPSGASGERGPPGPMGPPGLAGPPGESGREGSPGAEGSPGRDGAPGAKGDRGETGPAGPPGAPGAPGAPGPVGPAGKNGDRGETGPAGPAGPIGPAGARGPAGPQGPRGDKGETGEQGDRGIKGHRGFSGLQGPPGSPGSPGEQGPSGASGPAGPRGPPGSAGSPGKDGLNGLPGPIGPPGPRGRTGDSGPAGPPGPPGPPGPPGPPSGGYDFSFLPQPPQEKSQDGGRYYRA
type I collagen (Rattus norvegicus), sequence (P02466 86-1125, chain 2 of 2): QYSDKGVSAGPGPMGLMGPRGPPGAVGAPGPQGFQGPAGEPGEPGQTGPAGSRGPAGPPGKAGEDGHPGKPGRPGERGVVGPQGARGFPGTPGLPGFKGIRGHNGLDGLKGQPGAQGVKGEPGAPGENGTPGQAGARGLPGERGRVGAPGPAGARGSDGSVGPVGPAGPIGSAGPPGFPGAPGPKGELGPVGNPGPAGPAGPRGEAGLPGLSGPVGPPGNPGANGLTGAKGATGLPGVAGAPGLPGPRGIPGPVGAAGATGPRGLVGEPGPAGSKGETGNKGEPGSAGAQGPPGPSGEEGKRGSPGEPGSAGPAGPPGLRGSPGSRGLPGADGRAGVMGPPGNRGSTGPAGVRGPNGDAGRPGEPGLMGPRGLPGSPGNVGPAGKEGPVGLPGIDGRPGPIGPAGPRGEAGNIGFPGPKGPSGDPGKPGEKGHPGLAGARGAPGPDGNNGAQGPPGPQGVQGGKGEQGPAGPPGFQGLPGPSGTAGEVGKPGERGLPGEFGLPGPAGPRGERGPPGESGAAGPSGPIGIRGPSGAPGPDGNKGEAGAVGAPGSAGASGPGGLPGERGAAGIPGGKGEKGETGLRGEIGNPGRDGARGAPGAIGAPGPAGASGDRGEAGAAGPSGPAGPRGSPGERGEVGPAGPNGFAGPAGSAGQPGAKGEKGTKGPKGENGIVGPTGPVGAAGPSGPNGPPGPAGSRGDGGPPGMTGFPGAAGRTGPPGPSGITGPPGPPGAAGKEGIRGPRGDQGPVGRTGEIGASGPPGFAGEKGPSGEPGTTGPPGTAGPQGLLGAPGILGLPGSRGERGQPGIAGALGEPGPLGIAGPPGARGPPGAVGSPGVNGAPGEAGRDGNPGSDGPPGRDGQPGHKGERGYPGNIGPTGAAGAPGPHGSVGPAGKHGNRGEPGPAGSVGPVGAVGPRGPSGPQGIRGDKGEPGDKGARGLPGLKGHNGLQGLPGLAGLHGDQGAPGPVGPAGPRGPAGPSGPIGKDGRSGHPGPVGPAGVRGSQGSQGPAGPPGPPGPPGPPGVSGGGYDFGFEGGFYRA

Regarding “AATTTAGGAGCTGAAGGTCAGGGCACCAGCAGCCTTTGGAAGCCTAVAGGACAACAGTCAGCCTGGCTAGAAAAAAAAACAATGTCACAG [90 nt random ssDNA oligomer]”, the binding (ug ssDNA/ug collagen) came to 0.15.

Source of the values: patent US20240026334.
